Assay [1] concerns the target T1, human galectin-10-His (recombinant human galectin-10 with TEV-cleavable N-terminal His-tag) (human).
T1 construct: SEC-MALLS: dimer in solution; also called Gal10-His; humanGal10-His
T1 chain: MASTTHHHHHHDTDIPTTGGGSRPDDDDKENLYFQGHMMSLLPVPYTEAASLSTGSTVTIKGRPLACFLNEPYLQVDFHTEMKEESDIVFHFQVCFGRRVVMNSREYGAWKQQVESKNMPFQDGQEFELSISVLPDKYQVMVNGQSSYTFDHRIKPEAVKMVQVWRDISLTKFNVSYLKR
Nature of the assay: ELISA binding (summary table), mouse IgG1. A general note: ELISA stands for enzyme-linked immunosorbent assay.

Assay [2] has as its target T1, human galectin-10-His (recombinant …). Kind of assay: ELISA, mouse IgG1 on coated galectin-10-His (0.2 ug/mL). An outline of the steps:
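Serial dilutions of each antibody (from 100 nM, 1/4 steps, 12 points) were incubated on plates coated overnight with the antigen. Bound IgG1 detected with anti-mouse Fc-HRP, absorbance at 450 nm (reference 620 nm). EC50 from four-parameter variable-slope non-linear regression of OD values.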

Assay [3] shares this target. Kind of assay: BLI tandem on galectin-10-His; competitor: saturating 4E08 mIgG1 (10 ug/mL). The method, boiled down:
(§1)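 In this tandem epitope-mapping format, galectin-10-His is immobilised through its His-tag on anti-His sensors. Sensors are first exposed to excess saturating antibody and then transferred without delay to competitor antibody at suboptimal concentration, and binding is recorded in nm.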

For assay [4] the target is unchanged. Nature of the assay: BLI tandem on galectin-10-His; competitor: saturating 6A05 mIgG1 (10 ug/mL). An outline of the steps: as §1
Assay [5] shares this target. Kind of assay: BLI tandem on galectin-10-His; competitor: saturating 6A08 mIgG1 (10 ug/mL). The method, boiled down:
as §1

Assay [6] shares this target. Kind of assay: BLI tandem on galectin-10-His; competitor: saturating 6B06 mIgG1 (10 ug/mL). The method, boiled down:
as §1

Assay [7] shares this target. Nature of the assay: BLI tandem on galectin-10-His; competitor: saturating 6E10 mIgG1 (10 ug/mL). An outline of the steps: as §1
Assay [8] has the same target. Nature of the assay: BLI tandem on galectin-10-His; competitor: saturating 6F06 mIgG1 (10 ug/mL). An outline of the steps:
as §1

For assay [9] the target is unchanged. Nature of the assay: SPR Biacore T3000, mouse IgG1 captured by anti-mouse Fc, galectin-10-His as analyte. The method, boiled down: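 Polyclonal anti-mouse Fc on a CM5 chip (8000 RU) captured each mouse IgG1 (1.5 μg/mL) to around 150 RU. Galectin-10-His was then injected as a 1:2 serial dilution from 5 μg/mL in HBS-EP pH7.4. After blank subtraction, kd/KD and Rmax came from a simultaneous ka/kd fit with mass transfer and local Rmax.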
For orientation: In SPR one partner is held on a chip, and binding of the other changes the refractive index at the surface.

B1: 1D11 mouse IgG1 (antibody, V domains shown)
VH: QVQLVESGGGLVQPGGSLRLSCAASGFTFDDYAMSWVRQAPGKGLEWVSGISWNGGSTYYAESMKGRFTISRDNAKNTLYLQMNSLKSEDTAVYYCAKDRNLGYRLGYPYDYWGQGTQVTVSS
VL: QSVLTQPPSVSGSPGETVTISCAGTSSDVGYGNYVSWYQQLPGMAPRLLIYEVNKRASGITDRFSGSKSGNTASLTISGLQSEDEGDYYCASYRSSNNAVFGGGTHLTVL
notes: VH on mouse IgG1 heavy chain constant domains (CH1-CH2-CH3), VL on mouse lambda light chain constant domain; also called 1D011; 1D11 mIgG1
Regarding B1, the EC50 in assay [1] and in [2] was 100 pM in each case. For the same molecule, the Bmax in assay [2] came to 1.5 OD. Further, the “binding signal (nm)” value in assay [3] is 0 nm; in assay [4], 0.06 nm; in assay [5], 0.01 nm; in [6] it was 0 nm; in assay [7], -0.01 nm; in assay [8] it was 0.03 nm. The Kd in assay [9] is 1000 pM. Moreover, the koff in assay [9] was 0.00529 s⁻¹.

By EC50 is commonly meant the concentration that produces a half-maximal response. As usually defined, the Kd is the constant that tells how readily two partners part at equilibrium. The koff is the first-order rate constant of dissociation.

Values taken from US20190367619A1 (ARGENX, published 2019).
